The source of these data is patent publication US20260325600A1, “FORMULATIONS FOR INTRAOCULAR DELIVERY OF PEPTIDES DERIVED FROM TYPE IV COLLAGEN” (ASCLEPIX THERAPEUTICS, INC., priority 2022, published 2026).

Data set [1] can be described thus: In vitro gel formation in mock vitreous and homogenization. In kind it is physicochemical. The method, then: In alternative embodiments, microparticles can be prepared and fragmented. For example, a vitreous-like solution (“mock vitreous”) was prepared with sodium hyaluronate and used for in vitro pre-fragmented gel formation experiments. The AXT107 peptide solution is added to the mock vitreous, upon which the peptide forms a gel.

For data set [2] the following is noted: aqueous solution administered into vitreous from animals and people; cited from earlier work.

LRRFSTAPFAFIDINDVINF [AXT107]: the “product of homogenization of gel” value in data set [1] (gels homogenized after formation in mock vitreous) is “suspended microparticles comparable to those formed in excipient formulation with mixing”. Moreover, the “gel formation in mock vitreous” value in data set [1] (mock vitreous with sodium hyaluronate) was “forms a gel”. In addition, the “gel formation in vitreous” value in data set [2] is “precipitate to form a gel-like substance”.
